Target: T1, PepTag peptide C1
T1 chain: PLSRTLSVAAK

B1: recombinant DESC1 polypeptide expressed as a fusion protein with an amino-terminal His tag (pcDNA4/HisMax) (protein)
chain: MYRPDVVRARKRVCWEPWVIGLVIFISLIVLAVCIGLTVHYVRYNQKKTYNYYSTLSFTTDKLYAEFGREASNNFTEMSQRLESMVKNAFYKSPLREEFVKSQVIKFSQQKHGVLAHMLLICRFHSTEDPETVDKIVQLVLHEKLQDAVGPPKVDPHSVKIKKINKTETDSYLNHCCGTRRSKTLGQSLRIVGGTEVEEGEWPWQASLQWDGSHRCGATLINATWLVSAAHCFTTYKNPARWTASFGVTIKPSKMKRGLRRIIVHEKYKHPSHDYDISLAELSSPVPYTNAVHRVCLPDASYEFQPGDVMFVTGFGALKNDGYSQNHLRQAQVTLIDATTCNEPQAYNDAITPRMLCAGSLEGKTDACQGDSGGPLVSSDARDIWYLAGIVSWGDECAKPNKPGVYTRVTALRDWITSKTGI
**Q.** B1 was tested. Which “PepTag Protease Assay: proteolysis of dye-linked peptide, agarose gel electrophoresis” value did it give?
**A.** The value was “demonstrate proteolytic cleavage of C1 peptide by fractions containing DESC1 polypeptide eluted from the ProBond resin”.
